Values of other authors in paper PMC9772450, “Gel-forming antagonist provides a lasting effect on CGRP-induced vasodilation” (Frontiers in Pharmacology, 2022).

Experiments:
migraine = settings: 31% at baseline; 40–50% in the placebo group; ref Cady et al., 2022
Source text: Migraine is a common complex neurovascular disorder that is manifested as episodic and predominantly unilateral throbbing headache with hypersensitivity to light, sound, and movement ([Erdener and Dalkara, 2014]; [Schuster and Rapoport, 2016]). According to the World Health Organization, 324 million people worldwide suffer from incapacitating migraine in 2008. In ∼ one-third of patients, migraine headaches are accompanied by an aura involving neurological symptoms such as transient visual, sensory, or motor disturbances ([Goadsby et al., 2002]). In the US, it was reported that 15% of Americans ...

[1] = antibodies; ref https://go.drugbank.com/drugs
[2] = system: capsaicin-induced dermal blood flow; settings: in patients; ref Vu et al., 2017
Source text: It is known that anti-CGRP gepants could occupy a binding site close to the interface of the N-terminal domains of CLR and RAMP1, and act by allosteric regulation ([Miller et al., 2010]). Although the gepants compounds have low IC50 values in receptor activation assays in vitro, it is well documented that gepants need high concentrations to bloc ...

Row | Molecule | Proportion of patients with moderate/maximal optimization at week four (migraine) | Volume of distribution [1] | Concentration required for 50% inhibition of capsaicin-induced dermal blood flow [2] | Concentration required for 99% inhibition of capsaicin-induced dermal blood flow [2]
1 | eptinezumab: anti-CGRP antibody (antibody, chains of the INN, looked up, V domains shown) VH: EVQLVESGGGLVQPGGSLRLSCAVSGIDLSGYYMNWVRQAPGKGLEWVGVIGINGATYYASWAKGRFTISRDNSKTTVYLQMNSLRAEDTAVYFCARGDIWGQGTLVTVSS VL: QVLTQSPSSLSASVGDRVTINCQASQSVYHNTYLAWYQQKPGKVPKQLIYDASTLASGVPSRFSGSGSGTDFTLTISSLQPEDVATYYCLGSYDCTNGDCFVFGGGTKVEIK | 58% | – | – | –
2 | erenumab: anti-CGRP receptor antibody (antibody, chains of the INN, looked up, V domains shown) VH: QVQLVESGGGVVQPGRSLRLSCAASGFTFSSFGMHWVRQAPGKGLEWVAVISFDGSIKYSVDSVKGRFTISRDNSKNTLFLQMNSLRAEDTAVYYCARDRLNYYDSSGYYHYKYYGMAVWGQGTTVTVSS VL: QSVLTQPPSVSAAPGQKVTISCSGSSSNIGNNYVSWYQQLPGTAPKLLIYDNNKRPSGIPDRFSGSKSGTSTTLGITGLQTGDEADYYCGTWDSRLSAVVFGGGTKLTVL | – | 3.86 L | 0.255 mg/L | 1.134 mg/L
3 | galcanezumab: anti-CGRP antibody (antibody, chains of the INN, looked up, V domains shown) VH: QVQLVQSGAEVKKPGSSVKVSCKASGYTFGNYWMQWVRQAPGQGLEWMGAIYEGTGKTVYIQKFADRVTITADKSTSTAYMELSSLRSEDTAVYYCARLSDYVSGFGYWGQGTTVTVSS VL: DIQMTQSPSSLSASVGDRVTITCRASKDISKYLNWYQQKPGKAPKLLIYYTSGYHSGVPSRFSGSGSGTDFTLTISSLQPEDFATYYCQQGDALPPTFGGGTKVEIK | – | 7.3 L | – | –
